Laboratory results taken from patent publication US20260108608A1 (GC CELL, published 2026).

Target: T1, CD5 on CD5-positive tumor cell lines (CCRF-CEM, RPMI-8402_Luc / RPMI-8402-Luciferase, RPMI-8402) (human, UniProt P06127 25-495)
T1 sequence (looked up): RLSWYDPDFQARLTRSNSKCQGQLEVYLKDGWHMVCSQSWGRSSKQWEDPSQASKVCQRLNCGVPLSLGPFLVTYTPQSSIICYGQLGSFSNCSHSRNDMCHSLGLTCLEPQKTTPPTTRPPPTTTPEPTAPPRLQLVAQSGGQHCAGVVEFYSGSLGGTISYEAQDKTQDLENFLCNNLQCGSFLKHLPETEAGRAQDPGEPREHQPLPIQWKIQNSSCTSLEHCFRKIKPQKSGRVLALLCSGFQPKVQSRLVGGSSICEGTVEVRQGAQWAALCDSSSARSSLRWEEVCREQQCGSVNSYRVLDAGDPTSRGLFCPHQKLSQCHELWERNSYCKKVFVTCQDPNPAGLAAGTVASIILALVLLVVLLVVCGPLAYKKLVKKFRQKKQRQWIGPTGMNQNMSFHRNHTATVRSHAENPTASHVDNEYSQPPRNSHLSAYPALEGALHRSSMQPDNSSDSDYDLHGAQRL
Experiment: cell-based or functional assay

B1: CD5 CAR (fourth generation), chimeric antigen receptor with anti-CD5 scFv, expressed on cord blood-derived NK cells (receptor)
chain: EIQLVQSGGGLVKPGGSVRISCAASGYTFTNYGMNWVRQAPGKGLEWMGWINTHTGEPTYADSFKGRFTFSLDDSKNTAYLQINSLRAEDTAVYFCTRRGYDWYFDVWGQGTTVTVSSGGGGSGGGGSGGGGSDIQMTQSPSSLSASVGDRVTITCRASQDINSYLSWFQQKPGKAPKTLIYRANRLESGVPSRFSGSGSGTDYTLTISSLQYEDFGIYYCQQYDESPWTFGGGTKLEIKAKPTTTPAPRPPTPAPTIASQPLSLRPEACRPAAGGAVHTRGLDFACDFWVLVVVGGVLACYSLLVTVAFIIFWVRSKRSRLLHSDYMNMTPRRPGPTRKHYQPYAPPRDFAAYRSERVQPLEENVGNAARPRFERNKRVKFSRSADAPAYQQGQNQLYNELNLGRREEYDVLDKRRGRDPEMGGKPRRKNPQEGLYNELQKDKMAEAYSEIGMKGERRRGKGHDGLYQGLSTATKDTYDALHMQALPPR
Q: How did the “expression of CD107a and cytokines (IFN-γ and TNF-α) in NK cells co-cultured with CCRF-CEM and RPMI-8402_Luc, CD5 CAR-NK against CBNK” value turn out when B1 was run?
A: ≥ 2 fold
